Measured values: paper PMC8727753, “Engineering of Reductive Aminases for Asymmetric Synthesis of Enantiopure Rasagiline” (Frontiers in Bioengineering and Biotechnology, 2021)

Legend:
[1] = tested on: T1, O=C1CCc2ccccc21; assay: purified protein; format: biochemical, Aspergillus calidoustus; details: 20 mM propargylamine, 0.2 mM NADPH, 1% DMSO, 100 mM Tris-HCl pH 9.0
T1 construct: dimer in homology model

[2] = substrate: O=C1CCc2ccccc21; assay: purified protein; format: biochemical, Aspergillus calidoustus; details: 20 mM propargylamine, 0.2 mM NADPH, 1% DMSO, 100 mM Tris-HCl pH 9.0

Molecule | Km [1] | kcat [1] | kcat/Km [1] | Km [2] | kcat [2] | kcat/Km [2]
AcRedAm (Aspergillus calidoustus; Q237G) | 0.004 ± 0.001 mM | 0.002 ± 0.001 s⁻¹ | 500 ± 30 M⁻¹ s⁻¹ | – | – | –
AcRedAm (Aspergillus calidoustus; W207S/Y214C) | 0.021 ± 0.004 mM | 0.026 ± 0.002 s⁻¹ | 1240 ± 26 M⁻¹ s⁻¹ | – | – | –
AcRedAm (Aspergillus calidoustus; Q237A) | 0.009 ± 0.001 mM | 0.007 ± 0.001 s⁻¹ | 778 ± 21 M⁻¹ s⁻¹ | – | – | –
AcRedAm (Aspergillus calidoustus; Y214M) | 0.012 ± 0.004 mM | 0.014 ± 0.002 s⁻¹ | 1170 ± 21 M⁻¹ s⁻¹ | – | – | –
AcRedAm (Aspergillus calidoustus; W207C) | 0.018 ± 0.002 mM | 0.022 ± 0.001 s⁻¹ | 1220 ± 44 M⁻¹ s⁻¹ | – | – | –
AcRedAm (Aspergillus calidoustus) (protein, dimer in homology model) MSTITLFGLGAMGKALAAKYIEKGYTTTIWNRTPSKAAPLVEKGAKLANTVGEGLASADLIILCLLDNASVRQTLDQATAALNGKTVINLTNGTPSQARETSEWVISHGAQYIHGGIMAVPDMIGSPHAVLLYSGESAETFSRVEAHLSHLGTSKFLGTDPGSASLHDLALLSGMYGLFSGFFHATALVKSQPGTTATGFVQLLTPWLSAMTHYLGALAKQIDEGDYATQGSNMAMQVTGVQNIVRASEEAGVTADLIMPILGRMTRAAEAGYADVDVSAVIEFMKE | – | – | – | 0.016 ± 0.004 mM | 0.017 ± 0.001 s⁻¹ | 1060 ± 41 M⁻¹ s⁻¹
